Results: patent US20170029484A1 (published 2017)
One block for each binder: values may come before it. Where no end group is shown, it is not given here. [ ]: non-standard residue; d: D form. pS = N[C@@H](COP(=O)(O)O)C(=O)O

Columns and labels:
[1] = biological target: T1, insulin receptor substrate 2 (IRS-2) peptide on HLA-A*02:01 (human); test: cytokine release
T1 peptide: RVA[pS]PTSGV

[2] = biological target: T2, CDC25b (M-phase inducer phosphatase 2) peptide on HLA-A*02:01 (human); test: killing
T2 peptide: GLLG[pS]PVRA

[3] = biological target: T3, desmuslin/synemin peptide on HLA-A*02:01 (human); test: cytokine release
T3 peptide: RTF[pS]PTYGL

[4] = biological target: T4, β-catenin peptide on HLA-A*02:01 (human); test: killing
T4 peptide: YLD[pS]GIHSGA

[5] = biological target: T1, insulin receptor substrate 2 (IRS-2) …; test: killing
[6] = biological target: T4, β-catenin peptide on HLA-A*02:01; test: cytokine release

binding result [1]: recognises
B1: IRS-2B (TCR, V domains shown)
Valpha: AQSVTQPDARVTVSEGASLQLRCKYSYSGTPYLFWYVQYPRQGLQLLLKYYSGDPVVQGVNGFEAEFIKSNSSFHLRKASVHWSDSAVYFCAVSAGSGGKLTLGAGTRLQVNL
Vbeta: EAAVTQSPRSKVAVTGGKVTLSCHQANNHDYMYWYRQDTGHGLRLIHYSYVADSTEKGDIPDGYKASRPSQENFSLILELASLSQTAVYFCASSDRDNYAEQFFGPGTRLTVL

B2: IRS-2A (TCR, V domains shown)
Valpha: AQSVTQPDARVTVSEGASLQLRCKYSYSGTPYLFWYVQYPRQGLQLLLKYYSGDPVVQGVNGFEAEFIKSNSSFHLRKASVHWSDSAVYFCAVSEGADRLTFGKGTQLIIQP
Vbeta: EAGVTQSPRYAVLQEGQAVSFWCDPISGHDTLYWYQQPRDQGPQLLVYFRDEAVIDNSQLPSDRFSAVRPKGTNSTLKIQSAKQGDTATYLCASSLLDSSYEQYFGPGTRLTVL
binding result [2]: no recognition

binding result [3]: recognises
B3: DESA (TCR, V domains shown)
Valpha: AQSVTQPDARATVSEGASLRLRCKYSYSGTPYLFWYVQYPRQGLQLLLKYYSGDPVVQGVNGFEAEFSKSNSSFHLRKASVHWSDSAVYFCVLSYSNNRIFFGDGTQLVMKP
Vbeta: DSGVVQSPRHIIKEKGGRSVLTCIPISGHSNVVWYQQTLGKELKFLIQHYEKVERDKGFLPSRFSVQQFDDYHSEMNMSALELEDSAMYFCASSLGGGEVFFGKGTRLTVV

B4: the CDC25b TCR (TCR, V domains shown)
Valpha: GEQVEQRPPHLSVREGDSAVIICTYTDPNSYYFFWYKQEPGAGLQLLMKVFSSTEINEGQGFTVLLNKKDQQLSLNLTAAHPGDSAVYFCAVKPGGYKVVFGSGTRLLVSP
Vbeta: EAAVTQSPRNKVAVTGGKVTLSCNQTNNHNNMYWYRQDTGHGLRLIHYSYGAGSTEKGDIPDGYKASRPSQENFSLILELATPSQTSVYFCASGGDTQYFGPGTRLLVL
binding result [4]: no recognition | binding result [5]: no recognition

binding result [3]: recognises
B5: DESB (TCR, V domains shown)
Valpha: AQSVTQPDARVTVSEGASLQLRCKYSYSGTPYLFWYAQYPRQGLQLLLKYYSGDPVVQGVNGFEAEFSKSNSSFHLRKASVHWSDSAVYFCVLRYGGNNKLTFGQGTVLSVIP
Vbeta: EAAVTQSPRSKVAVTGGKVTLSCHQTNNHDYMYWYRQDTGHGLRLIHYSYVADSTEKGDIPDGYKASRPSQENFSLILELASLSQTAVYFCASRYRDTQYFGPGTRLLVL

binding result [6]: recognises
B6: βCATA (TCR, V domains shown)
Valpha: GQQVQQSPASLVLQEGENAELQCNFSSTATRLQWFYQHPGGRLVSLFYNPSGTKHTGRLTSTTVTNERRSSLHISSSQTTDSGTYFCAIPPGTGSKLSFGKGAKLTVSP
Vbeta: NTKITQSPRYLILGRANKSLECEQHLGHNAMYWYKQSAEKPPELMFLYNLKQLIRNETVPSRFIPECPDSSKLLLHISAVDPEDSAVYFCASSQGQKQYFGPGTRLTVL
